From US20250257122A1 (UNITED STATES OF AMERICA AS REPRESENTED BY THE SECRETARY OF …, published 2025)
Positions count from the first letter of the chain named.

T1: cotton leafroll dwarf virus (CLRDV) N-terminal readthrough domain (^NRTD), purified soluble construct (cotton leafroll dwarf virus (CLRDV), …)
T1 construct: Expressed in E. coli; Calculated MW 26.410 kDa; also called CLRDV ^NRTD; CLRDV ^NRTD (TX)
T1 chain: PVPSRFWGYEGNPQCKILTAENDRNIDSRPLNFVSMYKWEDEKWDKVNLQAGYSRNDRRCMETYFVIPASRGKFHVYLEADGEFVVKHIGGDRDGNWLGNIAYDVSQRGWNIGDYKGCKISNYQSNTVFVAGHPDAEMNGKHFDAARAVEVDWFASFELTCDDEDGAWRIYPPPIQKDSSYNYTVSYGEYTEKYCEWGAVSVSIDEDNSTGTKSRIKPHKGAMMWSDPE

B1: D12 camelid single-chain antibody (VHH)
VHH: QVQLQESGGGLVQAGDSLRLSCAASGRTFNSFAMGWFRQAPGKEREFVAAIKWNGVTTDYADSMKGRFTISRDNAKNTMYLQMNTLKPEDTAIYYCAAKPTWATTNGRPTAYDYWGQGTQVTVSS
notes: Alpaca VHH, cloned into pMES4 and expressed in E. coli; also called D12 single-chain antibody
B2: A12 camelid single-chain antibody (VHH)
VHH: B1 VHH with V12A, K52N, T110A
notes: Alpaca VHH, cloned into pMES4 and expressed in E. coli; also called A12 single-chain antibody
B3: C12 camelid single-chain antibody (VHH)
VHH: B1 VHH with V12A, K65R, L81M
notes: Alpaca VHH, cloned into pMES4 and expressed in E. coli; also called C12 single-chain antibody

Experiments:
[1] = molecular target: T1, cotton leafroll dwarf virus (CLRDV) …; assay: phage display panning and screening (legend of FIG. 3)
Method: (§1) Isolation and screening for specific single-chain antibodies was carried out as detailed by K. M. Chow, et al. (2019, “Immunization of Alpacas (Lama pacos) with Protein Antigens and Production of Antigen-specific Single Domain Antibodies,” J. Vis. Exp. (143), e58471. doi: 10.3791/58471). Briefly, alpacas were immunized with ˜400 μg of a mixture of both TX and AL CP or ^NRTD preparations that contained 50% (v/v) of adjuvant. Five subsequent weekly boosting injections were provided using ˜200 μg of the same mixture detailed above. Three to five days after the last injection, 50 mL of blood was collected, and lymphocytes purified. A cDNA library was prepared using oligodT primers and RNA extracted from lymphocytes. A bacteriophage library was obtained from the cDNA library by cloning with restriction enzymes into the phage display vector pMES4. Expression of the insert fused to gene III of the filamentous phage was used for production of the phage solution and single-domain antibody panning. After screening, two single-chain antibodies that recognized the CRLDV CP were identified and named B6 (SEQ ID NO: 8) and E3 (SEQ ID NO: 4) and three single-chain antibodies that recognized the CRLDV ^NRTD were identified and names C12 (SEQ ID NO: 12), A12 (SEQ ID NO: 16), and D12 (SEQ ID NO: 20), respectively.

[2] = molecular target: T1, cotton leafroll dwarf virus (CLRDV) …; assay: phage display panning and screening
Method: as §1

Row | Binder | binding result [1] | binding result [2]
1 | B1 | binds | –
2 | B2 | – | binds
3 | B3 | – | binds
